Values of other authors as cited in patent US20200069786A1, “COMPOSITION AND PROCESS FOR PREPARING VACCINE” (TREOS BIO ZRT., priority 2018, published 2020).
Where two headings read alike, the source gives them in different places.

Test system: TSA
[1] = TSA expression rate in BLADDER cancer
[2] = TSA expression rate in Esophageal
[3] = TSA expression rate in HEAD and NECK
[4] = TSA expression rate in MELANOMA
[5] = TSA expression rate in PROSTATE cancer
[6] = TSA expression rate in Cervical cancer
[7] = TSA expression rate in GASTRIC cancer
[8] = TSA expression rate in LUNG cancer

| Molecule | TSA Expression Rate (ER) (BRAIN) | TSA Expression Rate (ER) (BREAST) | TSA Expression Rate (ER) (LUNG) | TSA Expression Rate (ER) (THYROID) | Expression Rate (ER) % [1] | Expression Rate (ER) % (TSA expression rate in CRC) | Expression Rate (ER) % [2] | Expression Rate (ER) % [3] | Expression Rate (ER) % (TSA expression rate in Kidney) | Expression Rate (ER) % [4] | Expression Rate (ER) % [5] | Expression Rate (ER) % [6] | Expression Rate (ER) % [7] | Expression Rate (ER) % [8] | TSA Expression Rate (ER) (HCC) | TSA Expression Rate (ER) (OVARIAN) |
| --- | --- | --- | --- | --- | --- | --- | --- | --- | --- | --- | --- | --- | --- | --- | --- | --- |
| HAGE (protein, UniProt Q9NXZ2 1-648, looked up) Probable ATP-dependent RNA …: MSHHGGAPKASTWVVASRRSSTVSRAPERRPAEELNRTGPEGYSVGRGGRWRGTSRPPEAVAAGHEELPLCFALKSHFVGAVIGRGGSKIKNIQSTTNTTIQIIQEQPESLVKIFGSKAMQTKAKAVIDNFVKKLEENYNSECGIDTAFQPSVGKDGSTDNNVVAGDRPLIDWDQIREEGLKWQKTKWADLPPIKKNFYKESTATSAMSKVEADSWRKENFNITWDDLKDGEKRPIPNPTCTFDDAFQCYPEVMENIKKAGFQKPTPIQSQAWPIVLQGIDLIGVAQTGTGKTLCYLMPGFIHLVLQPSLKGQRNRPGMLVLTPTRELALQVEGECCKYSYKGLRSVCVYGGGNRDEQIEELKKGVDIIIATPGRLNDLQMSNFVNLKNITYLVLDEADKMLDMGFEPQIMKILLDVRPDRQTVMTSATWPHSVHRLAQSYLKEPMIVYVGTLDLVAVSSVKQNIIVTTEEEKWSHMQTFLQSMSSTDKVIVFVSRKAVADHLSSDLILGNISVESLHGDREQRDREKALENFKTGKVRILIATDLASRGLDVHDVTHVYNFDFPRNIEEYVHRIGRTGRAGRTGVSITTLTRNDWRVASELINILERANQSIPEELVSMAERFKAHQQKREMERKMERPQGRPKKFH | 38% | 14% | 32% | 20% | 24% | 15% | 27% | 20% | 6% | 17% | 22% | – | – | – | – | – |
| PASD1 (protein, UniProt Q8IV76 1-773, looked up) Circadian clock protein PASD1: MKMRGEKRRDKVNPKSSQRKLNWIPSFPTYDYFNQVTLQLLDGFMITLSTDGVIICVAENISSLLGHLPAEIVGKKLLSLLPDEEKDEVYQKIILKFPLLNSETHIEFCCHLKRGNVEHGDSSAYENVKFIVNVRDICNEFPVVFSGLFSSHLCADFAACVPQEDRLYLVGNVCILRTQLLQQLYTSKAVSDEAVLTQDSDEEPFVGELSSSQGQRGHTSMKAVYVEPAAAAAAAAISDDQIDIAEVEQYGPQENVHMFVDSDSTYCSSTVFLDTMPESPALSLQDFRGEPEVNPLYRADPVDLEFSVDQVDSVDQEGPMDQQDPENPVAPLDQAGLMDPVDPEDSVDLGAAGASAQPLQPSSPVAYDIISQELELMKKLKEQLEERTWLLHDAIQNQQNALELMMDHLQKQPNTLRHVVIPDLQSSEAVPKKQQKQHAGQVKRPLPHPKDVKCFCGLSLSNSLKNTGELQEPCVAFNQQQLVQQEQHLKEQQRQLREQLQQLREQRKVQKQKKMQEKKKLQEQKMQEKKKLQEQRRQKKKKLQERKKWQGQMLQKEPEEEQQKQQLQEQPLKHNVIVGNERVQICLQNPRDVSVPLCNHPVRFLQAQPIVPVQRAAEQQPSGFYQDENCGQQEDESQSFYPEAYQGPPVNQLPLIDTSNSEAISSSSIPQFPITSDSTISTLETPQDYIRLWQELSDSLGPVVQVNTWSCDEQGTLHGQPTYHQVQVSEVGVEGPPDPQAFQGPAAYQPDQMRSAEQTRLMPAEQRDSNKPC | 31% | – | 29% | 25% | – | 44% | – | – | – | 44% | 29% | 58% | 44% | – | – | – |
| SLCO6A1 (protein, UniProt Q86UG4 1-719, looked up) Solute carrier organic anion …: MFVGVARHSGSQDEVSRGVEPLEAARAQPAKDRRAKGTPKSSKPGKKHRYLRLLPEALIRFGGFRKRKKAKSSVSKKPGEVDDSLEQPCGLGCLVSTCCECCNNIRCFMIFYCILLICQGVVFGLIDVSIGDFQKEYQLKTIEKLALEKSYDISSGLVAIFIAFYGDRKKVIWFVASSFLIGLGSLLCAFPSINEENKQSKVGIEDICEEIKVVSGCQSSGISFQSKYLSFFILGQTVQGIAGMPLYILGITFIDENVATHSAGIYLGIAECTSMIGYALGYVLGAPLVKVPENTTSATNTTVNNGSPEWLWTWWINFLFAAVVAWCTLIPLSCFPNNMPGSTRIKARKRKQLHFFDSRLKDLKLGTNIKDLCAALWILMKNPVLICLALSKATEYLVIIGASEFLPIYLENQFILTPTVATTLAGLVLIPGGALGQLLGGVIVSTLEMSCKALMRFIMVTSVISLILLVFIIFVRCNPVQFAGINEDYDGTGKLGNLTAPCNEKCRCSSSIYSSICGRDDIEYFSPCFAGCTYSKAQNQKKMYYNCSCIKEGLITADAEGDFIDARPGKCDAKCYKLPLFIAFIFSTLIFSGFSGVPIVLAMTRVVPDKLRSLALGVSYVILRIFGTIPGPSIFKMSGETSCILRDVNKCGHTGRCWIYNKTKMAFLLVGICFLCKLCTIIFTTIAFFIYKRRLNENTDFPDVTVKNPKVKKKEETDL | 19% | 7% | – | – | – | – | 33% | – | – | – | – | – | – | 7% | – | – |
| NXF2 (protein, UniProt Q9GZY0 1-626, looked up) Nuclear RNA export factor 2: MCSTLKKCGTYRTEVAECHDHGSTFQGRKKGGSSFRDNFDKRSCHYEHGGYERPPSHCQENDGSVEMRDVHKDQQLRHTPYSIRCERRMKWHSEDEIRITTWRNRKPPERKMSQNTQDGYTRNWFKVTIPYGIKYDKAWLMNSIQSHCSDRFTPVDFHYVRNRACFFVQDASAASALKDVSYKIYDDENQKICIFVNHSTAPYSVKNKLKPGQMEMLKLTMNKRYNVSQQALDLQNLRFDPDLMGRDIDIILNRRNCMAATLKIIERNFPELLSLNLCNNKLYQLDGLSDITEKAPKVKTLNLSKNKLESAWELGKVKGLKLEELWLEGNPLCSTFSDQSAYVSAIRDCFPKLLRLDGRELSAPVIVDIDSSETMKPCKENFTGSETLKHLVLQFLQQYYSIYDSGDRQGLLGAYHDEACFSLAIPFDPKDSAPSSLCKYFEDSRNMKTLKDPYLKGELLRRTKRDIVDSLSALPKTQHDLSSILVDVWCQTERMLCFSVNGVFKEVEGQSQGSVLAFTRTFIATPGSSSSLCIVNDELFVRDASPQETQSAFSIPVSTLSSSSEPSLSQEQQEMVQAFSAQSGMKLEWSQKCLQDNEWNYTRAGQAFTMLQTEGKIPAEAFKQIS | 18% | 2% | – | 20% | 19% | 9% | 17% | 5% | 0% | 8% | 14% | – | 6% | 15% | – | – |
| SP17 (protein, UniProt Q15506 1-151, looked up) Sperm surface protein Sp17: MSIPFSNTHYRIPQGFGNLLEGLTREILREQPDNIPAFAAAYFESLLEKREKTNFDPAEWGSKVEDRFYNNHAFEEQEPPEKSDPKQEESQISGKEEETSVTILDSSEEDKEKEEVAAVKIQAAFRGHIAREEAKKMKTNSLQNEEKEENK | 13% | 47% | – | 10% | – | – | 81% | – | – | – | 10% | 61% | – | 12% | 87% | 62% |
| FAM46D (protein, UniProt Q8NEK8 1-389, looked up) Terminal …: MSEIRFTNLTWDQVITLDQVLDEVIPIHGKGNFPTMEVKPKDIIHVVKDQLIGQGIIVKDARLNGSVASYILASHNGISYKDLDVIFGVELPGNEEFQVVKDAVLDCLLDFLPKDVKKEKLSPDIMKDAYVQKLVKVCNGHDCWSLISLSNNTGKNLELKFVSSLRRQFEFSVDSFQIVLDPMLDFYSDKNAKLTKESYPVVVAESMYGDFQEAMTHLQHKLICTRKPEEIRGGGLLKYCSLLVHGFKPACMSEIKNLERYMCSRFFIDFPHIEEQQKKIESYLHNHFIGEGMTKYDYLMTLHGVVNESTVCLMSYERRQILHLITMMALKVLGELNILPNTQKVTCFYQPAPYFAAEARYPIYVIPEPPPVSFQPYHPLHFRGSNGMS | 8% | – | 50% | 8% | – | 22% | – | – | – | 28% | 33% | 37% | 11% | – | – | – |
